# Data as given in patent publication US20260337278 (published 2026).
# Assays:
# [1] = molecular target: EGFR (wild-type, His-tagged or biotinylated) (human, UniProt P00533); assay: BLI
# EGFRvIII = EGFRvIII (human, UniProt P00533); assay: BLI
Kd [1] [nM],Kd (EGFRvIII) [nM],Binder
10.1,1.12,SI-95X29 (antibody) chain 1: not shown chain 2: DIQMTQSPSSLSASVGDRVTITCRSSQNIVHSNGNTYLDWYQQTPGKAPKLLIYKVSNRFSGVPSRFSGSGSGTDFTFTISSLQPEDIATYYCFQYSHVPWTFGQGTKLQITRTVAAPSVFIFPPSDEQLKSGTASVVCLLNNFYPREAKVQWKVDNALQSGNSQESVTEQDSKDSTYSLSSTLTLSKADYEKHKVYACEVTHQGLSSPVTKSFNRGECSGSGSGGGGGSGGGGSGGGGSDVQLQESGPSLVKPSQSLSLTCTVTGYSITSDFAWNWIRQFPGNKLEWMGYISYSGNTRYNPSLKSRISITRDTSKNQFFLQLNSVTIEDTATYYCVTAGRGFPYWGQGTLVTVSAGGGGSGGGGSGGGGSDILMTQSPSSMSVSLGDTVSITCHSSQDINSNIGWLQQRPGKSFKGLIYHGTNLDDEVPSRFSGSGSGADYSLTISSLESEDFADYYCVQYAQFPWTFGGGTKLEIK
4.17,0.593,SI-95X18 (antibody) chain 1: not shown chain 2: DIQMTQSPSSLSASVGDRVTITCRSSQNIVHSNGNTYLDWYQQTPGKAPKLLIYKVSNRFSGVPSRFSGSGSGTDFTFTISSLQPEDIATYYCFQYSHVPWTFGQGTKLQITRTVAAPSVFIFPPSDEQLKSGTASVVCLLNNFYPREAKVQWKVDNALQSGNSQESVTEQDSKDSTYSLSSTLTLSKADYEKHKVYACEVTHQGLSSPVTKSFNRGEC
6.1,0.834,SI-95X22 (antibody) chain 1: not shown chain 2: DIQMTQSPSSLSASVGDRVTITCRSSQNIVHSNGNTYLDWYQQTPGKAPKLLIYKVSNRFSGVPSRFSGSGSGTDFTFTISSLQPEDIATYYCFQYSHVPWTFGQGTKLQITRTVAAPSVFIFPPSDEQLKSGTASVVCLLNNFYPREAKVQWKVDNALQSGNSQESVTEQDSKDSTYSLSSTLTLSKADYEKHKVYACEVTHQGLSSPVTKSFNRGEC
5.56,0.654,SI-95X21 (antibody) chain 1: not shown chain 2: DIQMTQSPSSLSASVGDRVTITCRSSQNIVHSNGNTYLDWYQQTPGKAPKLLIYKVSNRFSGVPSRFSGSGSGTDFTFTISSLQPEDIATYYCFQYSHVPWTFGQGTKLQITRTVAAPSVFIFPPSDEQLKSGTASVVCLLNNFYPREAKVQWKVDNALQSGNSQESVTEQDSKDSTYSLSSTLTLSKADYEKHKVYACEVTHQGLSSPVTKSFNRGEC
6.02,0.642,SI-95X17 (antibody) chain 1: not shown chain 2: DIQMTQSPSSLSASVGDRVTITCRSSQNIVHSNGNTYLDWYQQTPGKAPKLLIYKVSNRFSGVPSRFSGSGSGTDFTFTISSLQPEDIATYYCFQYSHVPWTFGQGTKLQITRTVAAPSVFIFPPSDEQLKSGTASVVCLLNNFYPREAKVQWKVDNALQSGNSQESVTEQDSKDSTYSLSSTLTLSKADYEKHKVYACEVTHQGLSSPVTKSFNRGEC
5.01,0.676,SI-95X19 (antibody) chain 1: not shown chain 2: DIQMTQSPSSLSASVGDRVTITCRSSQNIVHSNGNTYLDWYQQTPGKAPKLLIYKVSNRFSGVPSRFSGSGSGTDFTFTISSLQPEDIATYYCFQYSHVPWTFGQGTKLQITRTVAAPSVFIFPPSDEQLKSGTASVVCLLNNFYPREAKVQWKVDNALQSGNSQESVTEQDSKDSTYSLSSTLTLSKADYEKHKVYACEVTHQGLSSPVTKSFNRGEC
4.73,0.839,SI-95X20 (antibody) chain 1: not shown chain 2: DIQMTQSPSSLSASVGDRVTITCRSSQNIVHSNGNTYLDWYQQTPGKAPKLLIYKVSNRFSGVPSRFSGSGSGTDFTFTISSLQPEDIATYYCFQYSHVPWTFGQGTKLQITRTVAAPSVFIFPPSDEQLKSGTASVVCLLNNFYPREAKVQWKVDNALQSGNSQESVTEQDSKDSTYSLSSTLTLSKADYEKHKVYACEVTHQGLSSPVTKSFNRGEC
7.94,1.45,SI-95X24 (antibody) chain 1: not shown chain 2: DVQLQESGPSLVKPSQSLSLTCTVTGYSITSDFAWNWIRQFPGNKLEWMGYISYSGNTRYNPSLKSRISITRDTSKNQFFLQLNSVTIEDTATYYCVTAGRGFPYWGQGTLVTVSAGGGGSGGGGSGGGGSDILMTQSPSSMSVSLGDTVSITCHSSQDINSNIGWLQQRPGKSFKGLIYHGTNLDDEVPSRFSGSGSGADYSLTISSLESEDFADYYCVQYAQFPWTFGGGTKLEIKGGGGSGSGSGGGGGSGGGGSGGGGSDIQMTQSPSSLSASVGDRVTITCRSSQNIVHSNGNTYLDWYQQTPGKAPKLLIYKVSNRFSGVPSRFSGSGSGTDFTFTISSLQPEDIATYYCFQYSHVPWTFGQGTKLQITRTVAAPSVFIFPPSDEQLKSGTASVVCLLNNFYPREAKVQWKVDNALQSGNSQESVTEQDSKDSTYSLSSTLTLSKADYEKHKVYACEVTHQGLSSPVTKSFNRGEC
10.5,1.08,SI-95X31 (antibody) chain 1: not shown chain 2: DIQMTQSPSSLSASVGDRVTITCRSSQNIVHSNGNTYLDWYQQTPGKAPKLLIYKVSNRFSGVPSRFSGSGSGTDFTFTISSLQPEDIATYYCFQYSHVPWTFGQGTKLQITRTVAAPSVFIFPPSDEQLKSGTASVVCLLNNFYPREAKVQWKVDNALQSGNSQESVTEQDSKDSTYSLSSTLTLSKADYEKHKVYACEVTHQGLSSPVTKSFNRGECGGGGSGGGGSGSGSGGGGGSGGGGSGGGGSDVQLQESGPSLVKPSQSLSLTCTVTGYSITSDFAWNWIRQFPGNKLEWMGYISYSGNTRYNPSLKSRISITRDTSKNQFFLQLNSVTIEDTATYYCVTAGRGFPYWGQGTLVTVSAGGGGSGGGGSGGGGSDILMTQSPSSMSVSLGDTVSITCHSSQDINSNIGWLQQRPGKSFKGLIYHGTNLDDEVPSRFSGSGSGADYSLTISSLESEDFADYYCVQYAQFPWTFGGGTKLEIK
0.68,0.375,SI-95X3 (antibody) chain 1: not shown chain 2: DILMTQSPSSMSVSLGDTVSITCHSSQDINSNIGWLQQRPGKSFKGLIYHGTNLDDEVPSRFSGSGSGADYSLTISSLESEDFADYYCVQYAQFPWTFGGGTKLEIKRTVAAPSVFIFPPSDEQLKSGTASVVCLLNNFYPREAKVQWKVDNALQSGNSQESVTEQDSKDSTYSLSSTLTLSKADYEKHKVYACEVTHQGLSSPVTKSFNRGEC
0.686,0.628,SI-95X35 (antibody) chain 1: not shown chain 2: DILMTQSPSSMSVSLGDTVSITCHSSQDINSNIGWLQQRPGKSFKGLIYHGTNLDDEVPSRFSGSGSGADYSLTISSLESEDFADYYCVQYAQFPWTFGGGTKLEIKRTVAAPSVFIFPPSDEQLKSGTASVVCLLNNFYPREAKVQWKVDNALQSGNSQESVTEQDSKDSTYSLSSTLTLSKADYEKHKVYACEVTHQGLSSPVTKSFNRGEC
6.17,1.45,SI-95X23 (antibody) chain 1: not shown chain 2: DVQLQESGPSLVKPSQSLSLTCTVTGYSITSDFAWNWIRQFPGNKLEWMGYISYSGNTRYNPSLKSRISITRDTSKNQFFLQLNSVTIEDTATYYCVTAGRGFPYWGQGTLVTVSAGGGGSGGGGSGGGGSDILMTQSPSSMSVSLGDTVSITCHSSQDINSNIGWLQQRPGKSFKGLIYHGTNLDDEVPSRFSGSGSGADYSLTISSLESEDFADYYCVQYAQFPWTFGGGTKLEIKSGSGSGGGGGSGGGGSGGGGSDIQMTQSPSSLSASVGDRVTITCRSSQNIVHSNGNTYLDWYQQTPGKAPKLLIYKVSNRFSGVPSRFSGSGSGTDFTFTISSLQPEDIATYYCFQYSHVPWTFGQGTKLQITRTVAAPSVFIFPPSDEQLKSGTASVVCLLNNFYPREAKVQWKVDNALQSGNSQESVTEQDSKDSTYSLSSTLTLSKADYEKHKVYACEVTHQGLSSPVTKSFNRGEC
7.56,0.579,SI-95X28 (antibody) chain 1: not shown chain 2: DILMTQSPSSMSVSLGDTVSITCHSSQDINSNIGWLQQRPGKSFKGLIYHGTNLDDEVPSRFSGSGSGADYSLTISSLESEDFADYYCVQYAQFPWTFGGGTKLEIKGGGGSGGGGSGGGGSDVQLQESGPSLVKPSQSLSLTCTVTGYSITSDFAWNWIRQFPGNKLEWMGYISYSGNTRYNPSLKSRISITRDTSKNQFFLQLNSVTIEDTATYYCVTAGRGFPYWGQGTLVTVSAGGGGSGGGGSGSGSGGGGGSGGGGSGGGGSDIQMTQSPSSLSASVGDRVTITCRSSQNIVHSNGNTYLDWYQQTPGKAPKLLIYKVSNRFSGVPSRFSGSGSGTDFTFTISSLQPEDIATYYCFQYSHVPWTFGQGTKLQITRTVAAPSVFIFPPSDEQLKSGTASVVCLLNNFYPREAKVQWKVDNALQSGNSQESVTEQDSKDSTYSLSSTLTLSKADYEKHKVYACEVTHQGLSSPVTKSFNRGEC
9.35,0.281,SI-95X26 (antibody) chain 1: not shown chain 2: DILMTQSPSSMSVSLGDTVSITCHSSQDINSNIGWLQQRPGKSFKGLIYHGTNLDDEVPSRFSGSGSGADYSLTISSLESEDFADYYCVQYAQFPWTFGGGTKLEIKGGGGSGGGGSGGGGSDVQLQESGPSLVKPSQSLSLTCTVTGYSITSDFAWNWIRQFPGNKLEWMGYISYSGNTRYNPSLKSRISITRDTSKNQFFLQLNSVTIEDTATYYCVTAGRGFPYWGQGTLVTVSASGSGSGGGGGSGGGGSGGGGSDIQMTQSPSSLSASVGDRVTITCRSSQNIVHSNGNTYLDWYQQTPGKAPKLLIYKVSNRFSGVPSRFSGSGSGTDFTFTISSLQPEDIATYYCFQYSHVPWTFGQGTKLQITRTVAAPSVFIFPPSDEQLKSGTASVVCLLNNFYPREAKVQWKVDNALQSGNSQESVTEQDSKDSTYSLSSTLTLSKADYEKHKVYACEVTHQGLSSPVTKSFNRGEC
13.4,1.21,SI-95X25 (antibody) chain 1: not shown chain 2: DVQLQESGPSLVKPSQSLSLTCTVTGYSITSDFAWNWIRQFPGNKLEWMGYISYSGNTRYNPSLKSRISITRDTSKNQFFLQLNSVTIEDTATYYCVTAGRGFPYWGQGTLVTVSAGGGGSGGGGSGGGGSDILMTQSPSSMSVSLGDTVSITCHSSQDINSNIGWLQQRPGKSFKGLIYHGTNLDDEVPSRFSGSGSGADYSLTISSLESEDFADYYCVQYAQFPWTFGGGTKLEIKGGGGSGGGGSGSGSGGGGGSGGGGSGGGGSDIQMTQSPSSLSASVGDRVTITCRSSQNIVHSNGNTYLDWYQQTPGKAPKLLIYKVSNRFSGVPSRFSGSGSGTDFTFTISSLQPEDIATYYCFQYSHVPWTFGQGTKLQITRTVAAPSVFIFPPSDEQLKSGTASVVCLLNNFYPREAKVQWKVDNALQSGNSQESVTEQDSKDSTYSLSSTLTLSKADYEKHKVYACEVTHQGLSSPVTKSFNRGEC
